Experimental data: publication PMC4635314, “Insights into Collagen Uptake by C-type Mannose Receptors from the Crystal Structure of Endo180 Domains 1–4” (Structure(London, England:1993), 2015)
Values belong to the binder of their own block, whether it stands above or below them.

Legend:
[1] = target: T1, gelatin (heat-denatured rat-tail type I collagen) (rat, UniProt P02454 152-1207; P02466 86-1125); assay: ELISA; solid-phase binding assay: collagen or gelatin coated at 10 μg/ml on Nunc MaxiSorp plates; Fc-tagged Endo180 proteins in PBS with 0.1 mg/ml κ-casein and 0.05% Tween 20 added for 2 hr (titration, or fixed 1 μM in Figure 6A); detected with anti-human IgG-HRP, 492 nm; single-site fit; conditions: both partners purified
T1 construct: collagen alpha-1(I) chain, rat, heat-denatured; collagen alpha-2(I) chain, rat, heat-denatured; Same chains as m3 but denatured (unfolded single chains) before coating or coupling; also called denatured collagen; source: bought: Sigma (rat-tail type I collagen), 1 mg/ml in 100 mM acetic acid heated to 67°C for 30 min
T1 sequence (P02454 152-1207, chain 1 of 2): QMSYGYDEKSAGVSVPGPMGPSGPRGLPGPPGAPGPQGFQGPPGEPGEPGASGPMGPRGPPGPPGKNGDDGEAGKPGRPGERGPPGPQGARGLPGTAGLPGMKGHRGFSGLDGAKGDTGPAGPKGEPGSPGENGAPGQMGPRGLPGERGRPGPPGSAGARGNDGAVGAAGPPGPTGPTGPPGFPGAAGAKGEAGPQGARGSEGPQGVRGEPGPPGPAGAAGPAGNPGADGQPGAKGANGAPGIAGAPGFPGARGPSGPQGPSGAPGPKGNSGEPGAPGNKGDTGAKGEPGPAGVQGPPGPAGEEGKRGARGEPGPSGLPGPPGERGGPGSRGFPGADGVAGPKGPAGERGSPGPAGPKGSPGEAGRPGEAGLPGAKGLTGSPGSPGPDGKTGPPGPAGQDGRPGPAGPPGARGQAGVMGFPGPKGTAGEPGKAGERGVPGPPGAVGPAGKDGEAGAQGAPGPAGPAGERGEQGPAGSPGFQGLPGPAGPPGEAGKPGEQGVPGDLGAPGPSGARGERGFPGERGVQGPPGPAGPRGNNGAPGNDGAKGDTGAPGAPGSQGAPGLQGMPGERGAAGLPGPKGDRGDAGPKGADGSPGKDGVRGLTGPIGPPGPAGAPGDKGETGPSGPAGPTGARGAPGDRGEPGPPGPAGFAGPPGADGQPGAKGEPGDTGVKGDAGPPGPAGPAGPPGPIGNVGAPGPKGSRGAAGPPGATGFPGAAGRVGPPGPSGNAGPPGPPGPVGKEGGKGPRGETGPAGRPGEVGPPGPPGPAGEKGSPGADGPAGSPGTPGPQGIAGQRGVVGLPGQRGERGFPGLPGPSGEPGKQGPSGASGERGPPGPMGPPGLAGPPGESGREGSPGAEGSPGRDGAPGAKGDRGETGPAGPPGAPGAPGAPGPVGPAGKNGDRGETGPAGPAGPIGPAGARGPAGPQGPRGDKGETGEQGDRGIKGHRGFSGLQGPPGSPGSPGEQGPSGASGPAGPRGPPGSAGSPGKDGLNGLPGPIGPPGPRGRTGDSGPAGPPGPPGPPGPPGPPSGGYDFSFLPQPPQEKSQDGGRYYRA
T1 sequence (P02466 86-1125, chain 2 of 2): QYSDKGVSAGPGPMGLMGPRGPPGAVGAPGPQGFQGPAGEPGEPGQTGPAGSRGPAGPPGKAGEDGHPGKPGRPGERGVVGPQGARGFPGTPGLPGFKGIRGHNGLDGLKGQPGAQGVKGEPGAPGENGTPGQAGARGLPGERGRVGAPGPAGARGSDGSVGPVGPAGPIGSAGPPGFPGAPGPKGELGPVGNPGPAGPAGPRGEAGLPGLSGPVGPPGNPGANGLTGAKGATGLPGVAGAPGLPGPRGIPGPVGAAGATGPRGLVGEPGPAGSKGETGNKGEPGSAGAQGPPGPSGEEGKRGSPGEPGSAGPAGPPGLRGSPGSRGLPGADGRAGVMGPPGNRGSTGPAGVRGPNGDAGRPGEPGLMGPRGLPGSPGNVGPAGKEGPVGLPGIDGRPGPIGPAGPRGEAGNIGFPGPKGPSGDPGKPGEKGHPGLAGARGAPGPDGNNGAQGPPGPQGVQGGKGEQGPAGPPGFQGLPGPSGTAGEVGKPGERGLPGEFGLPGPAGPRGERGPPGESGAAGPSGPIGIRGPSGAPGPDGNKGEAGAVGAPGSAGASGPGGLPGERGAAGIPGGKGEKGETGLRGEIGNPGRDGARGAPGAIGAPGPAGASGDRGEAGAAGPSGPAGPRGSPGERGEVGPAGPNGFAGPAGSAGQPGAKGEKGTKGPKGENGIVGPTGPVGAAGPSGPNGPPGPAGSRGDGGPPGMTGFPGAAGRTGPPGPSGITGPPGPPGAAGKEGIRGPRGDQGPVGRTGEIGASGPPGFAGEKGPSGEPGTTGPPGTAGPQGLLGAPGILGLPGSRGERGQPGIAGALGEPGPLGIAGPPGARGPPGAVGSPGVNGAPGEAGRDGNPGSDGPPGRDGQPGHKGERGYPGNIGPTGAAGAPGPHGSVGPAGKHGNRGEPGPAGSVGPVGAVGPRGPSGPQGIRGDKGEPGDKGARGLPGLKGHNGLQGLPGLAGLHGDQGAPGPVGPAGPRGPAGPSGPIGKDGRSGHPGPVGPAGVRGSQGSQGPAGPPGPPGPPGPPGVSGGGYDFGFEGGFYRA

[2] = target: T2, type I collagen (native, triple-helical; rat tail) (rat, UniProt P02454 152-1207; P02466 86-1125); assay: as above; conditions: both partners purified
T2 construct: collagen alpha-1(I) chain, rat; collagen alpha-2(I) chain, rat; also called native collagen; rat-tail type I collagen; source: bought: Sigma (rat-tail type I collagen)
T2 sequence (P02454 152-1207, chain 1 of 2): as the sequence (P02454 152-1207, chain 1 of 2) above
T2 sequence (P02466 86-1125, chain 2 of 2): as the sequence (P02466 86-1125, chain 2 of 2) above

- Kd [1]: 420 ± 30 nM
- Kd [2]: 2.5 ± 0.25 µM
B1: Endo180 D1-4-Fc (dimeric Fc-tagged Endo180 domains 1-4) (Fc fusion)
chain: APLADAALPEPNVFLIFSHGLQGCLEAQGGQVRVTPACNTSLPAQRWKWVSRNRLFNLGTMQCLGTGWPGTNTTASLGMYECDREALNLRWHCRTLGDQLSLLLGARTSNISKPGTLERGDQTRSGQWRIYGSEEDLCALPYHEVYTIQGNSHGKPCTIPFKYDNQWFHGCTSTGREDGHLWCATTQDYGKDERWGFCPIKSNDCETFWDKDQLTDSCYQFNFQSTLSWREAWASCEQQGADLLSITEIHEQTYINGLLTGYSSTLWIGLNDLDTSGGWQWSDNSPLKYLNWESDQPDNPSEENCGVIRTESSGGWQNRDCSIALPYVCKKKPNATAEPTPPDRWANVKVECEPSWQPFQGHCYRLQAEKRSWQESKKACLRGGGDLVSIHSMAELEFITKQIKQEVEELWIGLNDLKLQMNFEWSDGSLVSFTHWHPFEPNNFRDSLEDCVTIWGPEGRWNDSPCNQSLPSICKKAGQLSQG
modifications: natively glycosylated (predicted N-linked sites Asn69, Asn102, Asn140, Asn364, Asn497)

- Kd [1]: 2200 ± 150 nM
- Kd [2]: 3.7 ± 0.43 µM
B2: Endo180 D3-4-Fc (Fc fusion, human)
chain: APLAKSNDCETFWDKDQLTDSCYQFNFQSTLSWREAWASCEQQGADLLSITEIHEQTYINGLLTGYSSTLWIGLNDLDTSGGWQWSDNSPLKYLNWESDQPDNPSEENCGVIRTESSGGWQNRDCSIALPYVCKKKPNATAEPTPPDRWANVKVECEPSWQPFQGHCYRLQAEKRSWQESKKACLRGGGDLVSIHSMAELEFITKQIKQEVEELWIGLNDLKLQMNFEWSDGSLVSFTHWHPFEPNNFRDSLEDCVTIWGPEGRWNDSPCNQSLPSICKKAGQLSQG
notes: Endo180 (uPARAP), human, domains 3-4 (CTL1, CTL2), residues 231-513 of UniProt Q9UBG0; also called D3-4-Fc construct; source: HEK293 c18, transfected, secreted into serum-free medium, purified (protein A); not shown: Fc (IgG2), C-terminal, kept
